Assay results reported in patent US20080306212A1 (Biogen, published 2008).
Positions count from the first letter of the chain named. Names may count otherwise.

B1: 4 × 10 kDa PEG NBN106-N95K (ligand)
chain: ARATDARGCRLRSQLVPVSALGLGHSSDELIRFRFCSGSCRRARSPHDLSLASLLGAGALRSPPGSRPISQPCCRPTRYEAVSFMDVKSTWRTVDHLSATACGCLG
modifications: 10 kDa PEG on the amino terminus and on Lys95 of each chain (Table 8: 1, 1, 95, 95)
B2: 2 × 10 kDa PEG-NBN (ligand)
chain: AGTRSSRARATDARGCRLRSQLVPVSALGLGHSSDELIRFRFCSGSCRRARSPHDLSLASLLGAGALRSPPGSRPISQPCCRPTRYEAVSFMDVNSTWRTVDHLSATACGCLG
modifications: 10 kDa PEG on the amino-terminal amino acid of each chain (Table 8: 1, 1)
B3: 2 × 20 kDa PEG-NBN (ligand)
chain: B2 chain
modifications: 20 kDa PEG on the amino-terminal amino acid of each chain (Table 8: 1, 1)
B4: 2 × 5 kDa PEG-NBN (ligand)
chain: B2 chain
modifications: 5 kDa PEG on the amino-terminal amino acid of each chain (Table 8: PEGylated amino acids 1, 1)
B5: wild-type rat neublastin NBN113 (E. coli derived) (ligand)
chain: B2 chain
B6: 1 × 20 kDa Branched PEG-NBN (ligand)
chain: B2 chain
modifications: one 20 kDa branched PEG on the amino-terminal amino acid of one of the two chains (Table 8: 1)
B7: 3 × 10 kDa PEG-WT/N95K-NBN106 (ligand)
chain 1: B1 chain with K88N
chain 2: B1 chain
modifications: 10 kDa PEG on the amino terminus and on Lys95 (Table 8, for the dimer: 1, 1, 95); 10 kDa PEG on the amino terminus (Table 8, for the dimer: 1, 1, 95)
B8: 4 × 5 kDa PEG NBN106-N95K (ligand)
chain: B1 chain
modifications: 5 kDa PEG on the amino terminus and on Lys95 of each chain (Table 8: 1, 1, 95, 95)
B9: 3(,4) × 10 kDa PEG NBN106-N95K (ligand)
chain: B1 chain
modifications: 10 kDa SPA-PEG at the amino termini and Lys95, average 3.3 PEG moieties per dimer (Table 8: 1, 1, 95 (,95)); mixture of 2, 3 and 4 PEG adducts
B10: 3 × 10 kDa PEG NBN106-N95K (ligand)
chain: B1 chain
modifications: three 10 kDa PEG per dimer: both amino termini and one Lys95 (Table 8: 1, 1, 95)
B11: 1 × 20 kDa PEG-NBN104 (CHO) (ligand)
chain: AAGARGCRLRSQLVPVRALGLGHRSDELVRFRFCSGSCRRARSPHDLSLASLLGAGALRPPPGSRPVSQPCCRPTRYEAVSFMDVNSTWRTVDRLSATACGCLG
modifications: one 20 kDa PEG on the amino-terminal amino acid of one chain (Table 8: 1); glycosylated at amino acid 95 of each chain (95, 95)
B12: NBN104 (CHO) (ligand)
chain: B11 chain
modifications: glycosylated at amino acid 95 of each chain (Table 8: 95, 95; numbering of SEQ ID NO:1)
B13: 2 × 20 kDa PEG-NBN104 (CHO) (ligand)
chain: B11 chain
modifications: 20 kDa PEG on the amino-terminal amino acid of each chain (Table 8: 1, 1); glycosylated at amino acid 95 of each chain (95, 95)

Biological target: T1, c-Ret (RET receptor tyrosine kinase) on NB41A3-mRL3 cells (UniProt P35546 29-1115, limits assumed)
Assay: cell-based or functional assay

T1 sequence (P35546 29-1115 limits assumed): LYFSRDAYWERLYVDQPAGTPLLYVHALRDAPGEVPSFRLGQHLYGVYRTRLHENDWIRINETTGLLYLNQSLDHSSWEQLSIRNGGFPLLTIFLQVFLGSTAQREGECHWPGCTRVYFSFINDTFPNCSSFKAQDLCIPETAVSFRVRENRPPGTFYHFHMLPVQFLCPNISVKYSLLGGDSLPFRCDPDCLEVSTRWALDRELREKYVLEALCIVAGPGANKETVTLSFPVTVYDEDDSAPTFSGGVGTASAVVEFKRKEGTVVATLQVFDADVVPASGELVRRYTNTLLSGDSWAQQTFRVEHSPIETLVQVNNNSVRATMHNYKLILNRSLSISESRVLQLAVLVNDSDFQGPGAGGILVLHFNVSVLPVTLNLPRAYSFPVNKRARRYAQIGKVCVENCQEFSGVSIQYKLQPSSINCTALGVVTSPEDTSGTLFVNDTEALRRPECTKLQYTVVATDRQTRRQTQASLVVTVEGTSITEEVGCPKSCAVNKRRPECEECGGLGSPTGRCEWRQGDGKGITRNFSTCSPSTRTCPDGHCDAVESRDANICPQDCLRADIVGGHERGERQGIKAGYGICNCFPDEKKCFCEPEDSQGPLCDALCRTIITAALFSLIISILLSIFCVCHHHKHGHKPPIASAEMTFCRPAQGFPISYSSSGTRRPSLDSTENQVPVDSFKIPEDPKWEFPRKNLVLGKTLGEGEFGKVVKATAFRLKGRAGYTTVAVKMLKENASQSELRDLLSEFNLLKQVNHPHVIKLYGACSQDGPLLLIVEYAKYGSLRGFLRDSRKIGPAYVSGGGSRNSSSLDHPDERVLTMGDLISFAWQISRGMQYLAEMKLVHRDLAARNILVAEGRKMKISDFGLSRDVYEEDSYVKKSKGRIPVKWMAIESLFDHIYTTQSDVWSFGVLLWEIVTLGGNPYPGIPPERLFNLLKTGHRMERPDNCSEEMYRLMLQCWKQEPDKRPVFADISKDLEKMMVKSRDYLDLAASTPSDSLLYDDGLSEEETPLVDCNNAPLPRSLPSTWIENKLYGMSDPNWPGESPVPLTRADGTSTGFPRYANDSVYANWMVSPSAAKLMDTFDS

potency in the KIRA ELISA relative to wild-type NBN113 [fold less potent] | Binder
~10 | B1

Biological target: T1, c-Ret (RET receptor tyrosine kinase) on …
Assay: cell-based or functional assay
Remark: another data set of the same source

KIRA:~ EC50 [nM] | KIRA:~ Max Efficacy vs WT [%] | Binder
~0.2 | ~72 | B2
~0.6 | ~80 | B3
~0.2 | ~105 | B4
– | ~100 | B5
~0.2 | ~83 | B6
~0.7 | ~115 | B7
~1 | ~80 | B8
~11 | > 80 | B1
~1.6 | ~90 | B9
~0.8 | ~100 | B10

Biological target: c-Ret (RET receptor tyrosine kinase) on NB41A3-mRL3 cells (UniProt P35546)
Assay: cell-based or functional assay

Chain of c-Ret (RET receptor tyrosine kinase) on NB41A3-mRL3 cells (UniProt P35546) (P35546 29-1115 limits assumed): as above

KIRA:~ EC50 [nM] | KIRA:~ Max Efficacy vs WT [%] | Binder
0.3 | 110 | B11
0.7 | 90 | B12
1 | 105 | B13
